In US20250152729A1 (CANCER RESEARCH TECHNOLOGY, published 2025):
Positions count from the first letter of the chain named. In names and notes the source's numbering stands.

T1: human SEMA4A expressed on cells (UniProt ID Q9H3S1, isoform 1) (human, UniProt Q9H3S1 33-761)
T1 sequence: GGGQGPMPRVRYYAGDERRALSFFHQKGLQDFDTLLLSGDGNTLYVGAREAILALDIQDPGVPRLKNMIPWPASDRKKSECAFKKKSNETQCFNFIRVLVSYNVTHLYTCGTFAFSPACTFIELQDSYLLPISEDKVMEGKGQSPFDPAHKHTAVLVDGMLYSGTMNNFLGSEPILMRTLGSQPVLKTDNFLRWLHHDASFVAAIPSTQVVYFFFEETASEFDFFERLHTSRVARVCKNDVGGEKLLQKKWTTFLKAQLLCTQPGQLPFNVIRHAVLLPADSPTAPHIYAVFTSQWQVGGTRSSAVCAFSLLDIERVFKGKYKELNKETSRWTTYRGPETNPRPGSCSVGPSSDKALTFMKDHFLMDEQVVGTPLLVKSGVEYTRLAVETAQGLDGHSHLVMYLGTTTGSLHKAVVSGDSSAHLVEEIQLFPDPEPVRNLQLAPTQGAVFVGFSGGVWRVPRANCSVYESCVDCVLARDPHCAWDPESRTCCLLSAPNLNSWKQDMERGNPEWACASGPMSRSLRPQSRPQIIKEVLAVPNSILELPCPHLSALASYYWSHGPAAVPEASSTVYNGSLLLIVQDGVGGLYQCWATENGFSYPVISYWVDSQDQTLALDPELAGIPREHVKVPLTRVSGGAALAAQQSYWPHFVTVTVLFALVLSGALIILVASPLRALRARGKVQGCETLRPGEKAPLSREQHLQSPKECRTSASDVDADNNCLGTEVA

T2: human SEMA4B expressed on expi293 cells (human, UniProt Q9NPR2 44-837)
T2 construct: whole, on cells
T2 sequence (looked up): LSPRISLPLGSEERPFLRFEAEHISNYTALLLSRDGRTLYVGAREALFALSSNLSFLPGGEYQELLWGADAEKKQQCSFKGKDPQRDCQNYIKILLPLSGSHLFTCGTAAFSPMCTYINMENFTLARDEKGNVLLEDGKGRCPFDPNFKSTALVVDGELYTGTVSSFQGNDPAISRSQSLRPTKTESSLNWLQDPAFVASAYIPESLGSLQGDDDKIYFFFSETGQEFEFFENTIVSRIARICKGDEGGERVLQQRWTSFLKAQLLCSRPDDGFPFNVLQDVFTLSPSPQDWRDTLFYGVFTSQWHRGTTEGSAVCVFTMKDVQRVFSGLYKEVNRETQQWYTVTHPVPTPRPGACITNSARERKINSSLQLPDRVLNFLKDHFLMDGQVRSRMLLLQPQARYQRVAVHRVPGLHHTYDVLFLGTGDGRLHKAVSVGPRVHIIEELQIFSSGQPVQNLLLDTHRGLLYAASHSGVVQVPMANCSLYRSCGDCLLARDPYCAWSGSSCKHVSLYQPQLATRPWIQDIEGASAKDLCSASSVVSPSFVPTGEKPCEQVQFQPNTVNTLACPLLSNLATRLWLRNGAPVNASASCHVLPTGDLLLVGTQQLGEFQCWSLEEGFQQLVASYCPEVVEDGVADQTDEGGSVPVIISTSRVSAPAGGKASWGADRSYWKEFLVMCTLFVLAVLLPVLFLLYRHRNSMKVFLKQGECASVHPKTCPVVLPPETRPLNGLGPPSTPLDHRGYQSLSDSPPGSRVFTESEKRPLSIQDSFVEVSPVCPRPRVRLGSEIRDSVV

B1: 5Hg1-5Lg1 human Alya IgG1 conjugated to McMMAF (antibody, V domains shown)
VH: QVQLVQSGAEVKKPGASVKVSCKASGYTFTDYWMHWVRQAPGQGLEWMGAIDTSDSYTSYNQKFKGRVTMTRDTSTSTVYMELSSLRSEDTAVYYCARDYGNFYYYAMDYWGQGTLVTVSS
VL: QAVVTQEPSLTVSPGGTVTLTCRSSTGAVTTSNYANWFQQKPGQAPRTLIYGTNNRAPWTPARFSGSLLGGKAALTLSGAQPEDEAEYYCALWYSNHWVFGGGTKLTVL
modifications: McMMAF on the engineered cysteines 239iCys and S442C (EU numbering) of the heavy constant region
notes: Antibody-drug conjugate; human IgG1 Alya constant; also called 5Hg1/5Lg1-McMMAF
B2: 5Hg2-5Lg2 human Alya IgG1 conjugated to McMMAF (antibody, V domains shown)
VH: B1 VH with G44R, M70I, T76A, V79A
VL: B1 VL with S78L
modifications: McMMAF on the engineered cysteines 239iCys and S442C (EU numbering) of the heavy constant region
notes: Antibody-drug conjugate; human IgG1 Alya constant; also called 5Hg2/5Lg2-McMMAF
B3: C0120914 human Alya IgG1 conjugated to McMMAF (antibody, V domains shown)
VH: QVQLQESGPGLVKPSETLSLTCTVSGGSVSSGRYDWSWIRQPPGKGLEWIGHIYYTGITDYNPSLRSRVTISADKPKNQFSLKLNSVTAADTAVYYCARGPFFDPWGQGTMVTVSS
VL: QSVLTQPPSVSVAPGQTASLTCGANNIGSKSVQWYQQKPGQAPVLVVYDGSDRPSGIPDRFSGSSSENTATLTISRVEAGDEADYYCQLWDSVTDRPVFGGGTKVTVL
modifications: McMMAF on the engineered cysteines 239iCys and S442C (EU numbering) of the heavy constant region
notes: Antibody-drug conjugate; human IgG1 Alya constant; also called C0120914-McMMAF
B4: C0120903 human Alya IgG1 conjugated to McMMAF (antibody, V domains shown)
VH: EVQLVQSGAEVKKPGSSMKVSCKASGGTFNSYTINWVRQAPGQGLEWVGGFIPIFGTADYAQKFHGRVAITADESMSTAYMELSSLRSEDTAVYYCARAPLGSEPFDYWGQGTMVTVSS
VL: SYVLTQPPSVSVAPGQTARITCGGNNIGSKSVHWYQQKPGQAPVLVVYDDSDRPSGIPERFSGSNSGNTATLTISRVEAGDEADYYCQVWDSSSDHLVFGGGTKLTVL
modifications: McMMAF on the engineered cysteines 239iCys and S442C (EU numbering) of the heavy constant region
notes: Antibody-drug conjugate; human IgG1 Alya constant; also called C0120903-McMMAF
B5: C0120917 human Alya IgG1 conjugated to McMMAF (antibody, V domains shown)
VH: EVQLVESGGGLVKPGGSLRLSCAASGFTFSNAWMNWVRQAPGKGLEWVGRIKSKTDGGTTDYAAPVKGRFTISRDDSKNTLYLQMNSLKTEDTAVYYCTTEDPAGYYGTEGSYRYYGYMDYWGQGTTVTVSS
VL: NFMLTQPHSVSESPGKTVTISCTASGDTLDNKYVNWYQVRPGSAPATLIFHYEERDSGVPDRFSGSFDASSNSASLTISGLQTADEADYFCQSYDSKRDNLVVFGGGTKVTVL
modifications: McMMAF on the engineered cysteines 239iCys and S442C (EU numbering) of the heavy constant region
notes: Antibody-drug conjugate; human IgG1 Alya constant; also called C0120917-McMMAF
B6: C0120906 human Alya IgG1 conjugated to McMMAF (antibody, V domains shown)
VH: EVQLVQSGPEVKKPGASVKISCKASGYKLNDPGVHGVSWVRQAPGQGLEWMGWISTLNGDTRYAQKFQGRVTMATDSSTSTIYMDLRSLKSDDTALYYCARDDYTAIFDFWGRGTLVTVSS
VL: QSVLTQPPSVSVAPGQTASITCGGSNIGSQSVHWYQQKPGQAPVLVVYDDSDRPSGIPERFSGSKSGNTASLILSRVEAGDEADYYCQVWDSSTDHHVFGTGTKVTVL
modifications: McMMAF on the engineered cysteines 239iCys and S442C (EU numbering) of the heavy constant region
notes: Antibody-drug conjugate; human IgG1 Alya constant; also called C0120906-McMMAF
B7: C0120918 human Alya IgG1 conjugated to McMMAF (antibody, V domains shown)
VH: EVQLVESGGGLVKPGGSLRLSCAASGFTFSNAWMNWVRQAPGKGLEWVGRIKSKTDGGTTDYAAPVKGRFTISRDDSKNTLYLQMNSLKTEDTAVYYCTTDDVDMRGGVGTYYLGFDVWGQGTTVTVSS
VL: SYELTQPPSVSVSPGQTARITCSGDALPKQYAYWYQQKPGQAPVLVIYKDSERPSGIPERFSGSSSGTTVTLTISGVQAEDEADYYCQSADSSGTWVFGGGTKVTVL
modifications: McMMAF on the engineered cysteines 239iCys and S442C (EU numbering) of the heavy constant region
notes: Antibody-drug conjugate; human IgG1 Alya constant; also called C0120918-McMMAF
B8: C0120905 human Alya IgG1 conjugated to McMMAF (antibody, V domains shown)
VH: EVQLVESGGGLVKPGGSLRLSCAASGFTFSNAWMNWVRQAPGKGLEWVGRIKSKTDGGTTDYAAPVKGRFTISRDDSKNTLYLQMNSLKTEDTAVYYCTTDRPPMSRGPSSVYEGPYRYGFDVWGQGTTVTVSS
VL: NFMLTQPHSVSESPGKTVTISCTGSGGNIVDNFVQWHQQRPGSAPRTVIYEDDQRPSGVPDRFSASVDSSSNSGTLSISGLKTEDEADYYCQSYDGANRWVFGGGTKLTVL
modifications: McMMAF on the engineered cysteines 239iCys and S442C (EU numbering) of the heavy constant region
notes: Antibody-drug conjugate; human IgG1 Alya constant; also called C0120905-McMMAF

target: T1, human SEMA4A expressed on cells …; test: cell-based or functional assay

| Binder | Average KARPAS 25 IC50 [pM], cell kill [pM] | Average MM1.S IC50 [pM], cell kill [pM] | Average NCI-H929 IC50 [pM], cell kill [pM] |
| --- | --- | --- | --- |
| B1 | 625 | 35.8 | 100 |
| B2 | 181 | 10.7 | 34.3 |

target: T1, human SEMA4A expressed on cells …; test: cell-based or functional assay; remark: another data set of the same source

| Binder | Average MM1.S IC50 [pM], cell kill [pM] | Average NCI-H929 IC50 [pM], cell kill [pM] |
| --- | --- | --- |
| B3 | 1.1 | 2.5 |
| B4 | 8.8 | 7.1 |
| B5 | 10.9 | 18.1 |
| B6 | 4.7 | 3 |
| B7 | 13.2 | 55.8 |
| B8 | 63.5 | 90.8 |

target: T1, human SEMA4A expressed on cells …; test: cell-based or functional assay; remark: another data set of the same source

| Binder | EC50 (nM), Fab-pHast internalisation into NCI-H929 [nM] | Fold-Change at 6 hours (10 nM), Fab-pHast internalisation [fold] |
| --- | --- | --- |
| B3 | 3.29 | 112 |
| B1 | 0.54 | 121 |
| B2 | 0.59 | 103 |
| B4 | 0.98 | 118 |
| B5 | 8.29 | 53 |
| B6 | 4.1 | 116 |
| B7 | 3.62 | 79 |
| B8 | 3.72 | 91 |

target: T1, human SEMA4A expressed on cells …; test: flow cytometry on NCI-H929 cells endogenously expressing human SEMA4A, 10-point titration
Protocol: Binding of SEMA4A specific IgGs to membrane-bound SEMA4A was evaluated using flow cytometry in NCI-H929 cells that endogenously express human SEMA4A. Binding assays were performed by incubating the anti-SEMA4A antibodies with 200,000 cells for 3 hours at 4° C. followed by two washes with PBS, 1% (w/v) BSA (FACS buffer). A range of antibody concentrations were evaluated using a 10-point, 3-fold dilution series. Cells were then incubated with Alexa Fluor 647 conjugated AffiniPure Fab Fragment Goat Anti-Human IgG (H+L) (Jackson Immunoresearch Europe Limited, Ely, Cambridgeshire) diluted 1:100, at 4° C. for 1 hour, followed by two washes in FACS buffer. Cells were then stained with LIVE/DEAD™ Fixable Violet Dead Cell Stain (Life Technologies, L34955) for 30 minutes at 4° C., followed by two washes in FACS buffer. Cells were then fixed using BD Cell Fix (BD Biosciences, 340181). Fluorescence of live, single cells was measured using a Novocyte™ 3000 flow cytometer and Novoexpress software (Acea Biosciences, Inc, San Diego, CA). Data were analysed using FlowJo software (FlowJo, LLC, Ashland, OR). Mean fluorescence intensity values were plotted against antibody conjugate concentrations and KD values determined using Prism software (GraphPad Software Inc, La Jolla, CA).

| Binder | Kd [nM] |
| --- | --- |
| B3 | 9.04 |
| B1 | 1.46 |
| B2 | 2.46 |
| B4 | 9.88 |
| B5 | 40.5 |
| B6 | 9.67 |
| B7 | 1.6 |
| B8 | 34.3 |

target: T2, human SEMA4B expressed on expi293 cells; test: Mirrorball direct binding, dilution series on expi293 cells transiently transfected with human SEMA4B, anti-human Alexa Fluor 647
Protocol: To determine the specificity profile of each purified human Alya IgG1 conjugated to McMMAF, a dilution series was tested for binding to human SEMA4A, human SEMA4B and mock transfected cells (transient transfections set up in expi 293 cells.) The three assays employed methods described in section 2.3, using the appropriate cells and substituting the un-purified scFv periplasmic preparation with the human Alya IgG1 conjugated to McMMAF. Data was analysed as Count x median mean intensity (x FLU).

| Binder | binding result |
| --- | --- |
| B3 | no binding (tested: log (M) -8 (1e-8 M)) |
| B1 | no binding (tested: log (M) -8 (1e-8 M)) |
| B2 | no binding (tested: log (M) -8 (1e-8 M)) |
| B4 | no binding (tested: log (M) -8 (1e-8 M)) |
| B5 | no binding (tested: log (M) -8 (1e-8 M)) |
| B6 | no binding (tested: log (M) -8 (1e-8 M)) |
| B7 | no binding (tested: log (M) -8 (1e-8 M)) |
| B8 | no binding (tested: log (M) -8 (1e-8 M)) |
